Source: patent US20140120095A1 (Boehringer Ingelheim, published 2014)

What was measured:
[1] = target: VEGF (UniProt P15692-4 27-191, limits assumed); assay: cell-based or functional assay
[2] = target: DII4-His (C-terminal His-tagged human DII4, amino acid 27-524) (human, UniProt Q9NR61 25-522); assay: cell-based or functional assay
[3] = target: T1, human DLL4 overexpressed on cells (human, UniProt Q9NR61 27-685); assay: cell-based or functional assay
[4] = target: T2, recombinant human DLL4 (human, UniProt Q9NR61 25-522); assay: binding ELISA, coated rhDLL4
T2 construct: also called rhDLL4; hDLL4
Description: (§1) In order to determine cross-reactivity to mouse DII4 a binding ELISA is performed. […] Wells are blocked with a casein solution (1% in PBS). VHHs are applied as dilution series and binding is detected using a mouse anti-myc (Roche) and an anti-mouse-AP conjugate (Sigma, St Louis, Mo., USA) (FIG. 7 A-H). As reference, binding to human DII4 is measured.

[5] = target: T3, recombinant mouse DLL4 (mouse, UniProt Q9JI71 27-532); assay: binding ELISA, coated rmDLL4
T3 construct: extracellular domain; also called rmDLL4; mDLL4
Description: as §1

[6] = target: T1, human DLL4 overexpressed on cells; assay: competitive FMAT, hNotch1-Fc on CHO-hDLL4
[7] = target: T4, mouse DLL4 overexpressed on cells (mouse, UniProt Q9JI71 27-686); assay: competitive FMAT, hNotch1-Fc on CHO-mDLL4
T4 construct: whole, on cells; also called CHO-mDLL4; CHO-mDII4

[8] = target: T2, recombinant human DLL4; assay: competition AlphaScreen, biot-hDLL4/hNotch1-Fc
Description: In brief, 1 nM biotinylated human DII4 is captured on streptavidin-coated donor beads (20 μg/mL), while 0.4 nM of the receptor human Notch1 (as a Fc fusion protein) is captured on anti-human Fc VHH-coated acceptor beads (20 μg/mL). Both loaded beads are incubated together with a dilution range of the competing VHH (FIG. 4 A-E).

[9] = target: T2, recombinant human DLL4; assay: SPR Biacore T100, hDLL4 on chip, VHH/Fab injected
Description: Kinetic analysis to determine the affinity of the DII4-VHH interaction is performed by Surface Plasmon Resonance (SPR) on a Biacore T100 instrument. […] Purified VHHs or Fab fragment are injected for 2 minutes at different concentrations (between 10 and 300 nM) and allowed to dissociate for 20 min at a flow rate of 45 μl/min. Between sample injections, the surfaces are regenerated with 10 mM glycine pH1.5 and 100 mM HCl. HBS-N (Hepes buffer pH7.4) is used as running buffer. If possible, data are evaluated by fitting a 1:1 interaction model (Langmuir binding) onto the binding curves. The affinity constant KD is calculated from resulting association and dissociation rate constants (kₐ) and […].

[10] = target: T5, cynomolgus DLL4 overexpressed on cells (cynomolgus, UniProt Q9NR61 27-685 (human entry)); assay: FACS titration on HEK293-cDLL4 cells, MCF
T5 construct: also called cyno DII4; cDLL4
T5 chain: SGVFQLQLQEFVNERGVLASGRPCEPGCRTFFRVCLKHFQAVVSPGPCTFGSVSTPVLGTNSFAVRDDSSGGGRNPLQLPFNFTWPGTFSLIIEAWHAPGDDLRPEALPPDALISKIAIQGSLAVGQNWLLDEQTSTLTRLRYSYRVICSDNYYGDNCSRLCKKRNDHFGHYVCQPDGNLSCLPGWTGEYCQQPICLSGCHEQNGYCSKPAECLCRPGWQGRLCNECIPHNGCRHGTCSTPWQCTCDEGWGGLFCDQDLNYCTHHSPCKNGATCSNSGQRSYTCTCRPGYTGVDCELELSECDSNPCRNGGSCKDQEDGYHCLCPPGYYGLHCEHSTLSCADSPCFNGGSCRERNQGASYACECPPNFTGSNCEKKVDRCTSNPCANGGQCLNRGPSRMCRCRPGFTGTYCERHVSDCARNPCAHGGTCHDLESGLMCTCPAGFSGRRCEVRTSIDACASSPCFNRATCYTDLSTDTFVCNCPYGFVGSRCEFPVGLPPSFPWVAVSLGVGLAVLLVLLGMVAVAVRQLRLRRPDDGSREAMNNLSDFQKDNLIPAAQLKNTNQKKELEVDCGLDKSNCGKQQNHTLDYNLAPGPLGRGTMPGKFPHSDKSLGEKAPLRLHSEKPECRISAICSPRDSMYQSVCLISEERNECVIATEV
Description: (§2) In order to determine the cynomologus cross-reactivity of the VHHs, a FACS binding experiment is performed. Cynomolgus DII4 expressing HEK293 cells (transient or stable transfection) are used for a titration binding experiment of the VHHs. After a 30 minutes incubation on ice, all samples are washed and detection is performed by applying anti-c-myc˜Alexa647 (Santa Cruz Biotechnology, Santa Cruz, Calif., USA). Human and mouse DII4 overexpressing HEK293 cells are taken as reference. The mean MCF value is determined on the FACS Array and used for calculation of the EC₅₀ value (see FIG. 9 A-E).

[11] = target: T4, mouse DLL4 overexpressed on cells; assay: FACS titration on HEK293-mDLL4 cells, MCF
Description: as §2

[12] = target: T2, recombinant human DLL4; assay: competition ELISA, biot-hDLL4 to coated hNotch1-Fc
Description: Residual binding of biotinylated human DII4 is detected using horseradish peroxidase (HRP) conjugated extravidin (Sigma, St. Louis, Mo., USA) (FIG. 3 A-C). Human DII4 is biotinylated as described above.

[13] = target: T1, human DLL4 overexpressed on cells; assay: FMAT, labelled hNotch1-Fc on CHO-hDLL4, periplasmic extract
Description: (§3) All calculations are based on the FL1_total signal which comprises the average of the fluorescence per well times the number of counts per well.

[14] = target: T4, mouse DLL4 overexpressed on cells; assay: FMAT, labelled hNotch1-Fc on CHO-mDLL4, periplasmic extract
Description: as §3

[15] = target: T6, human Jagged-1 (human, UniProt P78504 34-1067, limits assumed); assay: binding ELISA on coated recombinant human Jagged-1, OD 405 nm
T6 construct: also called hJagged-1; hJAG1
Outline: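 Plates coated overnight at 4° C with 1 μg/mL ligand, blocked with 1% casein in PBS. VHH dilution series applied; bound VHH detected via mouse anti-myc then anti-mouse-AP conjugate.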

T4 sequence (Q9JI71 27-686): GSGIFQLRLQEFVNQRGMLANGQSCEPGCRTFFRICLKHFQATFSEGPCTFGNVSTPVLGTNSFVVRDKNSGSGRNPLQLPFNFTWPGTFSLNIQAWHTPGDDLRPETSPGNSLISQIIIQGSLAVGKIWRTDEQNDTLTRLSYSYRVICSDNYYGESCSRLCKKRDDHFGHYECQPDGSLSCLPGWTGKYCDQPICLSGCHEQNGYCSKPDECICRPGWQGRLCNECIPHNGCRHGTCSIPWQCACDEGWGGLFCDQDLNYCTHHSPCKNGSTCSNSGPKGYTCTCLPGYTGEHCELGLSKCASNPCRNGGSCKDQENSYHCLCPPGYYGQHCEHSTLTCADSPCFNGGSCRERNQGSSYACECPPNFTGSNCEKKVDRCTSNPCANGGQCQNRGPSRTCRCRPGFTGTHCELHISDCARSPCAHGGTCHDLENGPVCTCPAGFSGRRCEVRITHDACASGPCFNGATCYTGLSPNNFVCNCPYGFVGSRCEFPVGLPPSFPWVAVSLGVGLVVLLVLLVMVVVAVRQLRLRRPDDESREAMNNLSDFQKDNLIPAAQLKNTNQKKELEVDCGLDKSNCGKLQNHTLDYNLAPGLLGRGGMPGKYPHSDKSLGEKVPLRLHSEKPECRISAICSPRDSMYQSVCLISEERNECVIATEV
VEGF, sequence (P15692 other isoform, or with tags, fused parts or gaps limits assumed): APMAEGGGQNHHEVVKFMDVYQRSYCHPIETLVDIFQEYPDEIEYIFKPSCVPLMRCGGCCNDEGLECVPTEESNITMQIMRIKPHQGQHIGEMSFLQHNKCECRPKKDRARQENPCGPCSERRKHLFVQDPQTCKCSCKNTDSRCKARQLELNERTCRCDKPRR
T3 sequence (Q9JI71 27-532): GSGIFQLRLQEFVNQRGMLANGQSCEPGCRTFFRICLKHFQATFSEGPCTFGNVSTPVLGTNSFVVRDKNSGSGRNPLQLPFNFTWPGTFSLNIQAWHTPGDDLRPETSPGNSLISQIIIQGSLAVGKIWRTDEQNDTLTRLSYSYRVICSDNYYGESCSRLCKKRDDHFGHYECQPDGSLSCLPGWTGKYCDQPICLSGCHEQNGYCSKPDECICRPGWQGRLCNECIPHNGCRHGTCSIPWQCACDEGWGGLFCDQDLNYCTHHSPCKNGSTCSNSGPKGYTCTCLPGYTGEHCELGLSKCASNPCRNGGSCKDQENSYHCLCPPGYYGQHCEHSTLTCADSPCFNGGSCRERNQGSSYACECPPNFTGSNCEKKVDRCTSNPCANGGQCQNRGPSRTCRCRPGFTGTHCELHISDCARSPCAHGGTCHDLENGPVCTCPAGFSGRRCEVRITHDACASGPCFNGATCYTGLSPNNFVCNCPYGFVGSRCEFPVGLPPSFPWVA

B1: VEGFDLLBII014 (bispecific antibody)
chain: EVQLVESGGGLVQTGDSLRLSCEVSGRTFSSYSMGWFRQAQGKEREFVVAISKGGYKYDSVSLEGRFTISKDNAKNTVYLQINSLKPEDTAVYYCASSRAYGSSRLRLADTYEYWGQGTQVTVSSGGGGSGGGSEVQLVESGGGLVQPGGSLRLSCVASGIRFMSMAWYRQAPGKHRELVARISSGGTTAYVDSVKGRFTISRDNSKNTVYLQMNSLKAEDTAVYYCNTFSSRPNPWGAGTQVTVSSGGGGSGGGGSGGGGCGGGGSGGGGSGGGGSGGGGSEVQLVESGGGLVQAGGSLRLSCAASGRTFSSYAMAWYRQAPGKEREYVAAIRWSGGTAYYADSVQGRFTISRDNAKNTVYLQMNSLKPEDTAVYYCANRAPDTRLAPYEYDHWGQGTQVTVSS
modifications: PEGylated 35gs, cys15 linker (PEG on the Cys at position 15 of the 35 Gly-Ser linker; size of the PEG not stated)
% inhibition, VEGF HUVEC Erk phosphorylation assay, -HSA [1]: 101% | IC50 (nM), VEGF HUVEC Erk phosphorylation assay, -HSA [1]: 0.53 nM | IC50 (nM), DII4-mediated HUVEC proliferation assay, -HSA [2]: 0.53 nM

B2: VEGFDLLBII015 (bispecific antibody)
chain: EVQLVESGGGLVQTGDSLRLSCEVSGRTFSSYSMGWFRQAQGKEREFVVAISKGGYKYDSVSLEGRFTISKDNAKNTVYLQINSLKPEDTAVYYCASSRAYGSSRLRLADTYEYWGQGTQVTVSSGGGGSGGGGSGGGGCGGGGSGGGGSGGGGSGGGGSEVQLVESGGGLVQPGGSLRLSCVASGIRFMSMAWYRQAPGKHRELVARISSGGTTAYVDSVKGRFTISRDNSKNTVYLQMNSLKAEDTAVYYCNTFSSRPNPWGAGTQVTVSSGGGGSGGGGSGGGGSGGGGSGGGGSGGGGSGGGGSEVQLVESGGGLVQAGGSLRLSCAASGRTFSSYAMAWYRQAPGKEREYVAAIRWSGGTAYYADSVQGRFTISRDNAKNTVYLQMNSLKPEDTAVYYCANRAPDTRLAPYEYDHWGQGTQVTVSS
modifications: PEGylated 35gs, cys15 linker (PEG on the Cys at position 15 of the 35 Gly-Ser linker; size of the PEG not stated)
% inhibition, VEGF HUVEC Erk phosphorylation assay, -HSA [1]: 106% | IC50 (nM), VEGF HUVEC Erk phosphorylation assay, -HSA [1]: 0.4 nM | IC50 (nM), DII4-mediated HUVEC proliferation assay, -HSA [2]: 0.28 nM

B3: VEGFDLLBII013 (bispecific antibody)
chain: EVQLVESGGGLVQTGDSLRLSCEVSGRTFSSYSMGWFRQAQGKEREFVVAISKGGYKYDSVSLEGRFTISKDNAKNTVYLQINSLKPEDTAVYYCASSRAYGSSRLRLADTYEYWGQGTQVTVSSGGGGSGGGGSGGGGCGGGGSGGGGSGGGGSGGGGSEVQLVESGGGLVQAGGSLRLSCAASGRTFSSYAMAWYRQAPGKEREYVAAIRWSGGTAYYADSVQGRFTISRDNAKNTVYLQMNSLKPEDTAVYYCANRAPDTRLAPYEYDHWGQGTQVTVSS
modifications: PEGylated 35gs, cys15 linker (PEG on the Cys at position 15 of the 35 Gly-Ser linker; size of the PEG not stated)
% inhibition, VEGF HUVEC Erk phosphorylation assay, -HSA [1]: 95% | IC50 (nM), VEGF HUVEC Erk phosphorylation assay, -HSA [1]: 0.89 nM | IC50 (nM), DII4-mediated HUVEC proliferation assay, -HSA [2]: 2.06 nM

B4: DLLBII62C11 (VHH)
VHH: EVQLMESGGGLVQPGGSLRLSCVAAGFTFSNYYMSWVRQAPGKGLEWVSVISPDGSNTYYADTVKGRFTISRGNAKNTLFLQMTGLKSEDAAVYYCARGSGSWGVHGQGTQVTVSS
IC50, DLL4/Notch1 reporter assay [3]: 4.66 µM | EC50 [4]: 137 nM | EC50 [5]: 13.1 nM | IC50 [6]: 172 nM | IC50 [7]: 106 nM | IC50 [8]: 24.1 nM | Kd [9]: 120 nM | koff [9]: 0.13 s⁻¹ | kon [9]: 1.2e+06 M⁻¹ s⁻¹ | binding result [10]: no binding (tested: 1000 nM) | EC50 (read off the curve) [11]: ~20 nM | IC50 [12]: 72 nM | % inh [13]: 74% | % inh [14]: 71% | binding result [15]: no binding (tested: 5e-7 M)
